± gives the uncertainty stated by the source.

The series is described as follows: amyloid nucleation score (Sup35N fusion, yeast selection) (log enrichment); library NNK2; higher = more nucleation; inactive = no reads after selection. In a few lines: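 Plasmid inserts were Illumina-sequenced at input and output from psi-negative yeast expressing Sup35N fused to peptides of 20 random codons. The yeast were induced with 100 μM copper sulfate for 24 hours and grown 7 days at 30°C on medium lacking adenine and uracil, and sequences with under 100 input reads were excluded. Nucleation score is the DiMSum log enrichment of output over input reads, centred on the mode score of non-aggregating sequences.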
Take FRKCI: the amyloid nucleation score stood at 1.25 ± 0.38.
For the substance GYLSGYLRGSNILGHERYRY, the amyloid nucleation score is -0.85 ± 0.32.
In the case of NFRGTVLLAR it was 0.468 ± 0.74; in that of LMMKEPDPSVC, -0.101 ± 0.42.
The substance ISFWGFYRFRYDMCRRVSDR came in with an amyloid nucleation score of -1.34 ± 0.78.
Substance SWINLQVS had an amyloid nucleation score of -1.5 ± 0.75.
Consider FEGWVWFIPEASEHSYEHVN, for which the amyloid nucleation score is -0.002 ± 1.
In the case of SGHTRVGDFSF, the amyloid nucleation score came out at 0.158 ± 0.3.
With PLLGLRG the figure was 0.102 ± 1.1; with TMDYRTND, 0.443 ± 0.23; with KLPIRLMTCASNFNLGNCWL, 6.003 ± 0.038.
The substance YRWVRVSNRGCRTNMIKYMS came in with an amyloid nucleation score of -1.66 ± 0.36.
On to RQFLSPNYATECGFQLRVGI, for which the amyloid nucleation score result was “inactive”.
In the case of YRCVWYGFPSRSWAGSSDIL, the amyloid nucleation score came to 0.309 ± 0.8.
In the case of KLAVCLCGSKHNDLGYRGDP it was “inactive”.
CHLIVICIQFDKLNLESAFH came in with an amyloid nucleation score of 0.547 ± 0.81.
Regarding LNLMVTW, the amyloid nucleation score is -0.926 ± 0.78.
Turning to EDELSPF, the amyloid nucleation score was determined as 0.453 ± 0.18.
In the case of PLNCLPGNCSAQPRFGAASG it was 0.505 ± 0.39; in that of IIHSLARFIC, -0.594 ± 0.26.
With RALVYVWACSVLLDNCTSRH, the amyloid nucleation score was -0.935 ± 1.1.
Take SVTRRVSYRSYLVLVGEWKQ: the amyloid nucleation score came out at 0.901 ± 0.32.
Regarding FINSVVKLLLGNDMSCYSCH, the amyloid nucleation score came out at 5.65 ± 0.081.
Take GLSQILDDVGWICRVFELQR: the amyloid nucleation score stood at 0.299 ± 0.37.
The substance PLLRSKKKSALYPA returned an amyloid nucleation score of -0.021 ± 0.63.
Take QVLLGTLHKVY: the amyloid nucleation score was 1.4 ± 0.49.
As for GFMKPSRYLNMVKFNCRLRS, the amyloid nucleation score result was “inactive”.
RRDFWPSVSLGCDFRIRFPR yielded an amyloid nucleation score of 2.1 ± 0.12.
In the case of GTHPCLQVCDDRGDWLLA it was 0.868 ± 0.29; in that of AIIGKFVGVCCD, -0.931 ± 1.1.
With YMRDFYRVRNYRRCCVVCPS, the amyloid nucleation score is -1.59 ± 1.1.
The substance LEQFYCTMGSSFNMNGGMVI gave an amyloid nucleation score of -0.436 ± 0.29.
With RVSHEHVYLSNFVTPWLCYY the figure was 5.913 ± 0.049; with VFVARITSRTIIVLNESGFE, 5.21 ± 0.089; with RDTVFYILSAWNLSAGSRKA, 3.04 ± 0.089.
The substance SRLGFMAKPLMDVS returned an amyloid nucleation score of 2.79 ± 0.09.
With FYMLYYQIAVSCHLCFDILV the entry was “inactive”; with ACVCHREGCVAKGIIVM, 0.237 ± 1.
Take LVGSVWFEISFDSQMYSFG: the amyloid nucleation score entry was “inactive”.
Turning to FFGTMV, the amyloid nucleation score is -0.19 ± 0.37.
Substance VQIKLRQFTNKAFYTESMST showed an amyloid nucleation score of -0.053 ± 0.63.
Turning to MGSLSHYRAQDRLREQLWLW, the amyloid nucleation score was found to be 0.458 ± 0.19.
In the case of FYYVFYLNSLAVAGHLRILD it was “inactive”; in that of YSNSGVTWLRMHNVMFCGEG, -0.122 ± 0.32; in that of NCFDKMHKIWLFLLSLSIFC, “inactive”.
For WMSVG, the amyloid nucleation score was -0.081 ± 1.1.
Consider FILQELCWPVLSSIHFGNVA, for which the amyloid nucleation score is -1.15 ± 0.36.
With MLDVCGVLHLPRRSLIAFVA, the amyloid nucleation score was found to be 1.27 ± 0.21.
For the substance PFGHFQLLINSKTGMRSVMT, the amyloid nucleation score was -0.463 ± 0.37.
Turning to FCWNYMFVFRIGCFGFDFIG, the amyloid nucleation score result is “inactive”.
As to SFFCMKQMLNFL, the amyloid nucleation score stood at 0.533 ± 0.35.
For the substance VDMGGDPWMVNRCELSLRLW, the amyloid nucleation score came out at 0.881 ± 0.43.
In the case of HVVMFS it was -0.38 ± 0.76.
In turn, VFVERMPVGFHPFRIKIILT returned an amyloid nucleation score of 1.01 ± 0.59.
With GFEWSLSRIDLCSGFGLGAG, the amyloid nucleation score came out at 1.24 ± 0.29.
Turning to WLLWS, the amyloid nucleation score came out at 0.472 ± 0.26.
NGLYCFEVLLGSSAFPWTG came in with an amyloid nucleation score of 3.63 ± 0.082.
As for FRFCHCLEFQVY, the amyloid nucleation score was found to be 0.126 ± 0.5.
The substance FYLNRKRVYLSDGCRAFR gave an amyloid nucleation score of 0.252 ± 0.51.
YLIAELFQIVDACLWLSSWR returned an amyloid nucleation score of -0.328 ± 0.38.
TFFLITDTSVMEEM: the amyloid nucleation score was found to be 0.072 ± 0.79.
For the substance ITPFHT, the amyloid nucleation score was -0.448 ± 0.3.
SSSIRVRTDEHMEVAGKRLS displayed an amyloid nucleation score of 0.217 ± 0.27.
Substance TGYFTARNSAEVKRHVNLKR registered an amyloid nucleation score of 0.169 ± 0.8.
Regarding WCYELIYV, the amyloid nucleation score was -0.573 ± 0.79.
LGNTRSIWGE returned an amyloid nucleation score of 0.578 ± 0.27.
As for SWQDSLYRAQCFLCSWSKTV, the amyloid nucleation score was -0.575 ± 0.34.
FAVKGCNFGTGVFMRVE came in with an amyloid nucleation score of 0.021 ± 0.34.
FSPLCYSYV came in with an amyloid nucleation score of -1.22 ± 1.
In turn, ISVRPAQSASRPCLDLWLKA showed an amyloid nucleation score of 1.55 ± 0.36.
In the case of VIIRSFR, the amyloid nucleation score is -0.629 ± 0.34.
In the case of VGCIYRTQDCCSRDMVCIRV it was 0.071 ± 0.79.
In the case of MSMATTWSIFDWVEREFPFY it was -0.933 ± 0.55; in that of SICRPIMSESWIASPCVLVG, -0.012 ± 0.24; in that of LMSCRILRSAKRGHSNVKRF, 0.254 ± 0.46.
The substance LMGGYLEYGSFVTT displayed an amyloid nucleation score of 0.453 ± 0.51.
On to MGVLEGLSWVSRNKISGVLQ, for which the amyloid nucleation score is -0.191 ± 0.55.
Regarding KTRLPGVL, the amyloid nucleation score entry was “inactive”.
On to QSNVCKIGSGVDESGNNMTL, for which the amyloid nucleation score turned out to be 0.532 ± 0.37.
Consider NSSTVGMIAF, for which the amyloid nucleation score is -0.317 ± 0.22.
As for LIIQRLEGAF, the amyloid nucleation score is -0.245 ± 0.32.
For the substance IVCLAVSLSSDRTE, the amyloid nucleation score worked out at 6.599 ± 0.04.
In the case of KSICARVFTIQMRNVSVQSS it was 0.158 ± 0.43; in that of WGAVMACE, 0.756 ± 0.49.
In the case of PIARN it was -0.47 ± 1; in that of PYATNSRRNRNVYLRPHCQI, 1.77 ± 0.12; in that of DSWSAVYTNISELAIGGCHG, -0.055 ± 1.1.
With RPASKTMEDGCGLI, the amyloid nucleation score result was “inactive”.
For PTIMLTGR, the amyloid nucleation score was 0.208 ± 0.65.
Turning to MLYSWKFPEVASGNLKCRLE, the amyloid nucleation score was -0.24 ± 0.32.
In the case of VLRKEFVYSGCWAKRRLG, the amyloid nucleation score turned out to be 0.165 ± 0.17.
With MEWKSGL the figure was 0.534 ± 0.64; with TAVERVSTR, 4.94 ± 0.08; with PVRSMNPLRRLNESSRFDEE, 1.48 ± 0.61.
ATPLSGMVFNWSFEWQGCLL displayed an amyloid nucleation score of 0.949 ± 0.18.
PIRWVGHNKGFQGL gave an amyloid nucleation score of -1.22 ± 0.75.
With VCDFIW the figure was -1.48 ± 0.63.
In the case of CCVVYF it was 9.638 ± 0.039; in that of KPLLVN, 0.271 ± 0.46; in that of STRLEVLKLERKIMSSKLFL, 0.699 ± 0.18.
Consider SFSILLEDTSS, for which the amyloid nucleation score is -0.162 ± 0.76.
Consider DMYWCIYDRFMSLSWKT, for which the amyloid nucleation score is -0.597 ± 0.53.
NYHKWNVDSDFVYKGYGGHC came in with an amyloid nucleation score of -0.573 ± 0.48.
Turning to IYHYPKRREGVIK, the amyloid nucleation score was found to be 0.224 ± 0.56.
FLFAKYGSIIDTSVVDRLAR registered an amyloid nucleation score of 0.979 ± 0.5.
TSYSTPRMGPLTPRLSSG gave an amyloid nucleation score of 0.388 ± 0.25.
For VQFTRSVRFTLQFCARSDKT, the amyloid nucleation score worked out at 6.91 ± 0.045.
Regarding LGPAYYYHNYLNLRGLSSGM, the amyloid nucleation score was found to be 0.504 ± 0.74.
For DAKRVQIYF, the amyloid nucleation score stood at 1.02 ± 0.68.
TSLFVLVVGLGLCK: the amyloid nucleation score was determined as 2.91 ± 0.19.
For the substance QNGRMSTHTDFGGM, the amyloid nucleation score was determined as 0.39 ± 0.38.
In turn, CCGFGDEKDN showed an amyloid nucleation score of -0.206 ± 1.1.
In the case of VNYRNLMKESLCILRQTYTL it was 0.031 ± 0.65; in that of YSIYELPTHYLKCLRSYKSK, -0.627 ± 1.1; in that of RISRFCL, 1.52 ± 0.26.
With GMRVMVLFDFLYYRCLENLL, the amyloid nucleation score is -0.632 ± 1.1.
DVAYSYRHECIADKLLRVEH: the amyloid nucleation score was determined as 0.019 ± 0.55.
As for CLLLLCNPRISAE, the amyloid nucleation score is -0.582 ± 0.76.
In turn, LCWEVRTLEFIGFTQSYGKG yielded an amyloid nucleation score of -0.005 ± 0.33.
Consider TRNNLSVERQKVRAMSCEKC, for which the amyloid nucleation score was -0.038 ± 1.1.
In turn, YWVLQNYHLYCLYKSKSRNW came in with an amyloid nucleation score of -0.403 ± 0.4.
For LFINNDTNDNYH, the amyloid nucleation score is -1.18 ± 0.47.
The substance WFWNGLFNIRTVLDMHALCT gave an amyloid nucleation score of 4.11 ± 0.088.
SCSRWWFWRNATLEVLSKVR yielded an amyloid nucleation score of 0.697 ± 0.81.
With LMAKQFIPGTYTLRGSSFHG the figure was -0.677 ± 0.3; with WMTRIFTINVGNWWGFMHSR, 3.02 ± 0.056; with FKFYYVYYDITFYEC, -0.454 ± 0.28.
Consider REDRNATLCIVV, for which the amyloid nucleation score is 2.67 ± 0.13.
APRWWFYVDSY gave an amyloid nucleation score of 0.237 ± 1.
In the case of GWMHFVALKGFSNHGRAGSG, the amyloid nucleation score came out at 0.448 ± 0.57.
Turning to VVRYRLCSWMDIMCNVAACQ, the amyloid nucleation score turned out to be 4.267 ± 0.042.
For HIFGNRYWYSFCCFLLLPRR, the amyloid nucleation score amounted to 7.691 ± 0.072.
Turning to RFSCTKFRGKGLFWMLKCVL, the amyloid nucleation score was -0.835 ± 0.27.
FYCLCTTDGICLEDLL: the amyloid nucleation score was -0.097 ± 1.1.
Substance VDHSMVCWVRCMGC registered an amyloid nucleation score of 0.19 ± 1.1.
RRRVDSLIFYIKMRVLFNMF: the amyloid nucleation score entry was “inactive”.
Consider NPELRRGWFTWYPVGPGMKQ, for which the amyloid nucleation score stood at 0.175 ± 0.54.
Consider YDDKLHRPDDFGCRDHSPGM, for which the amyloid nucleation score came out at 0.495 ± 0.41.
Substance SSLSGYGSYGLLPRWLRLVT showed an amyloid nucleation score of 1.81 ± 0.4.
LLWLPR came in with an amyloid nucleation score of 0.376 ± 0.31.
In the case of SRRFFQKIRLWGMTDQQKGM, the amyloid nucleation score was found to be 3.08 ± 0.072.
Turning to IWTRLGYRQVPRYSAIFSAV, the amyloid nucleation score came to 0.136 ± 0.37.

The values are drawn from the supplement of paper PMC12042874.
